Source: the DeepSol protein solubility set

experiment: soluble on expression in E. coli; label from the status in PepcDB or PDB records

| Sequence | soluble on expression in E. coli |
| --- | --- |
| MARKLFTPITIKDMTLKNRIVMSPMCMYSSHEKDGKLTPFHMAHYISRAIGQVGLIIVEASAVNPQGRITDQDLGIWSDEHIEGFAKLTEQVKEQGSKIGIQLAHAGRKAELEGDIFAPSAIAFDEQSATPVEMSAEKVKETVQEFKQAAARAKEAGFDVIEIHAAHGYLIHEFLSPLSNHRTDEYGGSPENRYRFLREIIDEVKQVWDGPLFVRVSASDYTDKGLDIADHIGFAKWMKEQGVDLIDCSSGALVHADINVFPGYQVSFAEKIREQADMATGAVGMITDGSMAEEILQNGRADLIFIGRELLRDPFFARTAAKQLNTEIPAPVQYERGW | soluble |
| MARLLMIPGPTPVDPEVLLAMARPVISHTSPDFDEIHGETVSMLQKLFRTSGKVFLLPGSGSLGMEFAVRSVAGRGSRALVLKAGYFGGYFERILRSLGASVTVVESPVGRGFTGADVEEALDRAGDVDVVFVQHVETSTSVANPVREIAGVVKKNGARLVVDGIASVGGMDLRLDEWGVDVALTGSQKALSTPPGLAIVAFSSEYSVELEKREPSGIYFDFLSLSREMESTRNYHITPAVNLVFALNASLKRILGEGLENRFERHRVLARAFTRAMEALGLRLVAEEPFRAWTVTAVYLPQGIDWSRFYSVMRKRGVEVAGGLGGLKGKIFRVGHMGEVDANDLIATIAAIERSLVELGYREARLGQGLEAAQKELSSLGL | soluble |
| MARLTAYERRKFRVRNRIKRTGRLRLSVFRSLKHIYAQIIDDEKGVTLVSASSLALKLKGNKTEVARQVGRALAEKALALGIKQVAFDRGPYKYHGRVKALAEGAREGGLEF | soluble |
| MARNSTLTNLFLSTKRNMGRLISHIVKADDIDDIVQETFIKTYEADLKQEIKYVRSYMLKTAKNLALNHVARWDNKYNDSLEDFSQPPVQLTSGKVEDDYESKEQFLFFCRATDQLSGSVRKCFILKKVYGLSQKEIASYLNLSESTVEKHIAQGLLKSTKYIKRMNHGHSVKGAKQNHQVHSLQVKKTVLK | not soluble |
| MARRILVVEAEAPIREMVCFVLEQNGFQPVEAEDYDSAVNQLNEPWPDLILLEWMLPGGSGIQFIKHLKRESMTRDIPVVMLTARGEEEDRVRGLETGADDYITKPFSPKELVARIKAVMRRISPMA | soluble |
| MARRRRAEVRQLQPDLVYGDVLVTAFINKIMRDGKKNLAARIFYDACKIIQEKTGQEPLKVFKQAVENVKPRMEVRSRRVGGANYQVPMEVSPRRQQSLALRWLVQAANQRPERRAAVRIAHELMDAAEGKGGAVKKKEDVERMAEANRAYAHYRW | soluble |
| MASASNKQLELWKQYADTKNPAIKEQLIIEYSNIVKYIAGRLSIYFGSNVEYDDLIGYGIFGLIDAIEKFDINKGVKFETYASLRIRGSIIDSIRELDWVPRSLRQKNKELEKVYAEIENELGRSASDKEVADKLGITVDELNKLLNEVNLSSMISLEEFLEQNYEIGVTTAPESRDEKPEGYIEMAELREILADAISKLPEKEKMVITLYYFGEVVK | soluble |
| MASATARGLRKRLTPQEARLWAGLRELKLRGYHFRRRAPIGCYVVDFVCLSAKLVIDADGEQQAMPAHFAADRQRGVVLRRQGFRVLHFWNSDIDRYFEGVMQTVLDALPPPSVRPNVSRTGHSIHEGAGESG | soluble |
| MASCVLTHSPPPPMTAKSPPIPAPSPEQIGLRIRALRKRQKRTLAWLSAQCGLDKGFLSRLERGEKSASVGTLHTVAGALGSSLSALLGEADPQTEIQIVRAADRHRMTTAPGPGEHIYEAITLGSSHSGLSVMVVEVGTHGAHTEAHHGGDELIFVLDGRIRVHFGGHTVLLERDDSVRFPGYLPHSLSAEGRKLARALVVIASG | not soluble |
| MASESAVKDSQPSLDLASATSGDKIVTAQENGKAPDGQTVAGEVMGPQRPRSNSGRELTDEEILASVMIKNLDTGEEIPLSLAEEKLPTGINPLTLHIMRRTKEYVSNDAAQSDDEEKLQSQPTDTDGGRLKQKTTQLKKFLGKSVKRAKHLAEEYGERAINKVKSVRDEVFHTDQDDPSSSDDEGMPYTRPVKFKAAHGFKGPYDFDQIKVVQDLSGEHMGAVWTMKFSHCGRLLASAGQDNVVRIWALKNAFDYFNNMRMKYNTEGRVSPSPSQESLSSSKSDTDTGVCSGTDEDPDDKNAPFRQRPFCKYKGHTADLLDLSWSKNYFLLSSSMDKTVRLWHISRRECLCCFQHIDFVTAIAFHPRDDRYFLSGSLDGKLRLWNIPDKKVALWNEVDGQTKLITAANFCQNGKYAVIGTYDGRCIFYDTEHLKYHTQIHVRSTRGRNKVGRKITGIEPLPGENKILVTSNDSRIRLYDLRDLSLSMKYKGYVNSSSQIKASFSHDFTYLVSGSEDKYVYIWSTYHDLSKFTSVRRDRNDFWEGIKAHNAVVTSAIFAPNPSLMLSLDVQSEKSEGNEKSEDAEVLDATPSGIMKTDNTEVLLSADFTGAIKVFVNKRKNVS | not soluble |
| MASIGRAIVRVPKNVKKGQIFKVQMVIIHPMETGLRKDPKTGKKIPAHYITHVDLYFNGKLVTKINTSPGISKNPYFAIKMKAEEAGTLKIVYEDNKGGKWEKEVKINVA | not soluble |
| MASLSDQSGSIGSEQTRPSGAIPVESLPPQALEQLIASLQQEVEQLADALQQLNFANQRWTLCKQSIEAFAEETTRVDLPGAQSRATDAISSTASAKPETSVEVNQNQRLLVPLSRSLYVLGRVINPERCLIDIGTGYHVERKLADAAEFFDRRLKHVRGSMRQLTLKIDQNQQQMQTIREILVRKLAGAQQAAEHT | not soluble |
| MASMTGGQQMGRDLQVTLYGTIKAGVEVSRVKDAGTYKAQGGKSKTATQIADFGSKIGFKGQEDLGNGMKAIWQLEQKASIAGTNSGWGNRQSFIGLKGGFGTVRAGNLNTVLKDSGDNVNAWESGSNTEDVLGLGTIGRVESREISVRYDSPVFAGFSGSVQYVPRDNANDVDKYKHTKSSRESYHAGLKYENAGFFGQYAGSFAKYADLNTDAERVAVNTANAHPVKDYQVHRVVAGYDANDLYVSVAGQYEAAKNNEVGSIKGKKHEQTQVAATAAYRFGNVTPRVSYAHGFKAKVNGVKDANYQYDQVIVGADYDFSKRTSALVSAGWLKQGKGAGKVEQTASMVGLRHKF | soluble |
| MASNPNDLPDFPEHEYAATQQVGEGVINGDLYLTSASGAIQKGTNTKVTLEPATSYMKAYYAKFGNLDAAKRDPDVQPPVLDPRRATYVREATTDQNGRFDFDHIPNGTYYISSELTWSAQSDGKTITEGGTVTKLVTVSGSQPQKVLLTR | soluble |
| MASNQQDVVKELNQQVANWTVAYTKLHNFHWYVKGPNFFSLHVKFEELYNEASQYVDELAERILAVGGNPVGTLTECLEQSIVKEAAKGYSAEQMVEELSQDFTNISKQLENAIEIAGNAGDDVSEDMFIGMQTSVDKHNWMFKSYLSLEHHHHHH | soluble |
| MASPISHSSHENASGKYGYGDESQHGKNFHQKAEHSGHEAKEKGYSQDGKAADHDALHKDAAEHKQNKEAHQSGSGNKYVDDASNYNKDVKTKTFGFFDYRYVQPQYHMEQYHTDEKHANKYAGDEHNAGQQHKDNGGYHADGHQGYDKAQEKHGASHTNYGNEDAGHKSKYDDNEGKYGDHTDGYYNKGYDNYGQGHDSESYQPSYYQPKPKYYGGHQSHYQPSARHSSPYQGDQYYGYEAPHY | not soluble |
| MASRRELKKNVNYIAGELFTECLINSMFIPGTDKAKADELMAEVLRMQDEFVSRISHTEPGNVKGFYKKFRVDFNAKVNEIIEAIGKLN | not soluble |
| MASSSSTLPLHMYIRPLIIEDLKQILNLESQGFPPNERASEEIISFRLINCPELCSGLFIREIEGKEVKKETLIGHIMGTKIPHEYITIESMGKLQVESSNHIGIHSVVIKPEYQKKNLATLLLTDYIQKLSNQEIGNKIVLIAHEPLIPFYERVGFKIIAENTNVAKDKNFAEQKWIDMERELIKEEYDN | soluble |
| MASTIKEALSVVSEDQSLFECAYGTPHLAKTEMTASSSSDYGQTSKMSPRVPQQDWLSQPPARVTIKMECNPSQVNGSRNSPDECSVAKGGKMVGSPDTVGMNYGSYMEEKHMPPPNMTTNERRVIVPADPTLWSTDHVRQWLEWAVKEYGLPDVNILLFQNIDGKELCKMTKDDFQRLTPSYNADILLSHLHYLRETPLPHLTSDDVDKALQNSPRLMHARNTGGAAFIFPNTSVYPEATQRITTRPDLPYEPPRRSAWTGHGHPTPQSKAAQPSPSTVPKTEDQRPQLDPYQILGPTSSRLANPGSGQIQLWQFLLELLSDSSNSSCITWEGTNGEFKMTDPDEVARRWGERKSKPNMNYDKLSRALRYYYDKNIMTKVHGKRYAYKFDFHGIAQALQPHPPESSLYKYPSDLPYMGSYHAHPQKMNFVAPHPPALPVTSSSFFAAPNPYWNSPTGGIYPNTRLPTSHMPSHLGTYY | soluble |
| MASTIYTCKECGSDLNLNPNDLFPPDFYFEAGNKGTLSFAAVDAEKFRFEKEDKIMPFFETLNYWGIQRKRTKIKCTSCNHLIGYIYDDGPPLTGGIGQYGFGPSQVIPRAPRYRFKTKARQDGWQYGGLTAFWN | not soluble |
| MASYYEILDVPRSASADDIKKAYRRKALQWHPDKNPDNKEFAEKKFKEVAEAYEVLSDKHKREIYDRYGREGLTGTGTGPSRAEAGSGGPGFTFTFRSPEEVFREFFGSGDPFAELFDDLGPFSELQNRGSRHSGPFFTFSSSFPGHSDFSSSSFSFSPGAGAFRSVSTSTTFVQGRRITTRRIMENGQERVEVEEDGQLKSVTINGVPDDLALGLELSRREQQPSVTSRSGGTQVQQTPASCPLDSDLSEDEDLQLAMAYSLSEMEAAGKKPAGGREAQHRRQGRPKAQHQDPGLGGTQEGARGEATKRSPSPEEKASRCLIL | soluble |
| MATAIAITSLLIISGCSSNVETTTVKKETMQSQQKNTETVNTTPQNFYKDITSGKIEHIHGIGYVGNVPWVSIATHSGIKVYQNGKWLETATQLHDYMGFQATKNGFFASGHPEPGANLKNPLGLMKSSDGGNTLEKLAFYGESDFHNLAVGYNTEAIYLYNERPNSKLQQGFYFSTNNGQDWKNSKLKGLSSTVHSFSVHPDQSSVVAVSTKDGVYLSTDYGNTFELFSKSLESTAVTLSNEDVIYAPINTQIVTKKSIATNEETNIQIPLLDSKDAIMYISQNPQNAAEIVFATMKANVFLSTDEGKTWKQLTKEGTLQFN | not soluble |
| MATANNPPSGLLDPTLCEDRIFYNILEIEPRFLTSDSVFGTFQQSLTSHMRKLLGTWMFSVCQEYNLEPNVVALALNLLDRLLLIKQVSKEHFQKTGSACLLVASKLRSLTPISTSSLCYAAADSFSRQELIDQEKELLEKLAWRTEAVLATDVTSFLLLKLVGGSQHLDFWHHEVNTLITKALVDPLTGSLPASIISAAGCALLVPANVIPQDTHSGGVVPQLASILGCDVSVLQAAVEQILTSVSDFDLRILDSY | soluble |
| MATATMLKPLGDRVVVKRIEEEAKTKGGIVLPDTAKEKPQKGKVVAVGSGRTLDNGTKVPLEVKEGDTVVFAKYGGTEIEIDGEEYIILSERDLLAVI | soluble |
| MATFFLLSAGKAQDRIPACPPLGKTLKMIKPLREMNWANDTIAVQTSFPSAFRETGRDEIIDSIALLTPVFERLRQVRAGLSEDTVRILHIGDSHVRGHIYPQTTGTLLKETFGAVSYTDMGVNGATCLTFTHPGRIADIAAMKPELLILSFGTNESHNRRYNVNLHYNQMDELVKLLRDSLPDVPILLTTPPGSYESFRQRRRKRTYAINPRTVTAAETIRRYAKDHRLLVWDMYDVVGGKRRACTNWTEAKLMRPDHVHYLPEGYILQGNLLYQAIIQAYNDYVSH | not soluble |
